# According to patent publication US12077566:
# Target: EGFR extracellular domain (with an amino acid sequence of 25-645) (human) (UniProt P00533)
# Assay: SPR, Biacore T200; EGFR extracellular domain on CM5 chip, rLZ-8 protein as analyte
substance,measurement,value
rLZ-8 (D20H/E68K) (from UniProt P14945 1-111),Kd,6.43 nM
